Assay results from the supplement of paper PMC9732359.
± gives the uncertainty stated by the source.

Assay: protein stability index of a GFP-peptide fusion (yeast GPS) (PSI 1-4); higher = more stable; sorted into four equal gates, so the index is relative within each strain
How it was run: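 Sequencing reads from sorted gates were used to score each peptide. The library consisted of tiled 17-residue yeast protein peptides fused downstream of GFP on a Cherry-expressing plasmid, pooled and carried in yeast. Mid-log cultures in leucine-free medium were split into four equal gates by GFP/Cherry ratio, and each gate's plasmids were PCR-amplified and Illumina-sequenced. The protein stability index adds up, over all gates, the read frequency multiplied by the gate number.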

Sequence | protein stability index (pdr5∆) | protein stability index (doa10∆) | protein stability index (san1∆) | protein stability index (ubr1∆)
AAAAPAPVAAAAPAAAA [FAS2] | 1.62 ± 0.27 |  |  | 
AAGALFVSSGFDTSIKL [RPN14] | 2.52 ± 0.045 | 2.41 ± 0.052 | 2.18 ± 0.064 | 2.49 ± 0.035
AAGIWTCSCCKKTVAGG [RPL43A] | 3.17 ± 0.11 | 2.42 ± 0.13 | 3.02 ± 0.097 | 2.99 ± 0.074
AAGSYYVEAQHKLVFVV [RPL7A] | 2.74 ± 0.048 | 2.33 ± 0.072 | 2.26 ± 0.069 | 2.4 ± 0.044
AAKLKQTENDLKDIEAR [RPT1] | 2.53 ± 0.1 | 2.48 ± 0.1 | 2.46 ± 0.19 | 3.1 ± 0.087
AAKTRSYNWGAKAKRRH [RPL37A] | 3.39 ± 0.082 | 3.7 ± 0.15 | 3 ± 0.099 | 3.49 ± 0.085
AALAPKIGPLGLSPKKV [RPL12A] | 3.08 ± 0.097 | 2.66 ± 0.13 | 3.02 ± 0.097 | 3.26 ± 0.07
AAQAQAQAQAQAQAQAQ [GAL11] | 2.9 ± 0.043 | 2.69 ± 0.045 | 2.65 ± 0.04 | 2.95 ± 0.068
AARDNKKTRIIPRHLQL [HTA1] | 3.38 ± 0.11 | 3.04 ± 0.18 | 3.37 ± 0.13 | 3.15 ± 0.19
AAREKKIRELEAELSST [YIL149C/MLP2] | 3.25 ± 0.25 | 2.46 ± 0.29 |  | 2.89 ± 0.15
AARVDIGQIIFSVRTKD [RPL10] | 1.67 ± 0.081 | 1.74 ± 0.078 | 2.78 ± 0.12 | 2.04 ± 0.057
AASTPTTTATPHANPIT [PGD1] | 2.85 ± 0.035 | 2.91 ± 0.044 | 2.92 ± 0.038 | 2.916 ± 0.026
ADIENSTSGDPSEFHCL [SSN2] | 3.31 ± 0.26 | 3.15 ± 0.18 | 3.21 ± 0.12 | 3.29 ± 0.12
ADINLEESIRESLQKRE [SIR3] | 3.28 ± 0.088 | 3.4 ± 0.085 | 3.09 ± 0.12 | 3.36 ± 0.062
ADNVDKILEQFEYVLYP [FAS2] | 1.94 ± 0.089 | 2.05 ± 0.067 | 2.17 ± 0.094 | 2.57 ± 0.08
ADRNDDDEGSFAQENSE [SRB6] | 3.22 ± 0.13 | 3.08 ± 0.11 | 2.6 ± 0.17 | 3.22 ± 0.12
ADTLDPALLRPGRLDRK [RPT3] | 3.56 ± 0.16 | 3.57 ± 0.17 | 3.26 ± 0.23 | 3.3 ± 0.2
ADYRLILTGTPLQNNLP [SNF2] | 2.15 ± 0.043 | 2.08 ± 0.047 | 1.65 ± 0.058 | 2.03 ± 0.037
AEDDVIIPQDILDCVVT [YJR042W/NUP85] | 3.04 ± 0.065 | 3.18 ± 0.1 | 3.36 ± 0.04 | 2.94 ± 0.07
AELDLMSGILHCEDKDY [RPN6] | 3.08 ± 0.047 | 2.9 ± 0.052 | 3 ± 0.046 | 3.13 ± 0.038
AELFNNDIKLFVDDTNV [PRP8] | 2.09 ± 0.053 | 2.17 ± 0.065 | 2.46 ± 0.054 | 2.13 ± 0.034
AENSHTQPKATSTGTTI [PUP1] | 3.1 ± 0.071 | 3.17 ± 0.073 | 3.07 ± 0.06 | 3.26 ± 0.057
AETKSYDSRGVGEMKLL [YLR335W/NUP2] | 2.1 ± 0.11 | 1.94 ± 0.064 | 2.25 ± 0.097 | 2.44 ± 0.079
AETLCFTVNVLYPDSSS [RPN3] | 2.69 ± 0.05 | 2.56 ± 0.055 | 2.97 ± 0.052 | 2.87 ± 0.041
AEVQSLFQDGSASLHTR [RRP4] | 2.78 ± 0.16 | 2.57 ± 0.13 | 2.85 ± 0.1 | 
AFDKHMNLVLNECIEER [SMB1] | 2.34 ± 0.19 | 2.06 ± 0.14 | 2.68 ± 0.16 | 2.56 ± 0.051
AFFHLFASLRVLPDADV [YJL039C/NUP192] | 1.24 ± 0.078 | 1.17 ± 0.08 | 1.36 ± 0.14 | 1.97 ± 0.066

Sequence | protein stability index (pdr5∆) | protein stability index (doa10∆) | protein stability index (san1∆) | protein stability index (ubr1∆)
AFRRIMISEVPSVAAEY [RPC40] | 1.49 ± 0.056 | 1.35 ± 0.052 | 1.51 ± 0.079 | 1.25 ± 0.049
AFTRKQANQVKRHSYAQ [RPS1A] | 1.75 ± 0.024 | 1.8 ± 0.024 | 2.03 ± 0.034 | 2.01 ± 0.027
AFVPKKRKTNIIMFVGL [SRP54] | 2.16 ± 0.088 | 2.03 ± 0.1 | 1.86 ± 0.18 | 2.26 ± 0.051
AGCKIDNVDDIGEFNVS [YDL088C/ASM4] | 2.8 ± 0.097 | 3.25 ± 0.11 | 2.94 ± 0.096 | 3.06 ± 0.14
AGDIQLQYGWKVERHIM [RPO21] | 1.24 ± 0.12 | 1.18 ± 0.067 | 1.36 ± 0.19 | 1.24 ± 0.098
AGENAPSIVFIDEIDAI [RPT2] | 2.46 ± 0.21 | 2.03 ± 0.17 | 1.74 ± 0.18 | 1.86 ± 0.14
AGETLILDGLTVRLVNL [SRB2] | 2.97 ± 0.082 | 2.43 ± 0.071 | 2.46 ± 0.073 | 2.66 ± 0.052
AGGEAGEAEAEKEEEEA [RPP1A] | 3.47 ± 0.21 |  | 2.54 ± 0.22 | 3.5 ± 0.18
AGKFELLDRILPKLKAT [SNF2] | 2.05 ± 0.14 | 1.18 ± 0.17 | 1.77 ± 0.19 | 1.95 ± 0.17
AGNIKCRNDAVNWLAYT [BRR2] | 3.49 ± 0.039 | 3.13 ± 0.05 | 3.16 ± 0.034 | 3.24 ± 0.035
AGTKITICIELKTVLHN [RGR1] | 1.32 ± 0.07 | 1.18 ± 0.062 | 1.39 ± 0.13 | 1.49 ± 0.09
AHMSIGCLHKGKLISNL [YML031W/NDC1] | 1.9 ± 0.058 | 2.04 ± 0.079 | 2.14 ± 0.15 | 1.83 ± 0.065
AHMWPRVHDQPLIWQLL [POP3] | 1.64 ± 0.12 | 1.42 ± 0.12 | 1.44 ± 0.23 | 1.51 ± 0.11
AHRIMLTNILRMMGCVK [FAS2] | 1.87 ± 0.06 | 1.86 ± 0.061 | 1.9 ± 0.12 | 2.41 ± 0.19
AHRVRDLMDEELRKHAQ [SKI6] | 3.39 ± 0.12 | 3.14 ± 0.14 | 2.83 ± 0.12 | 3.29 ± 0.064
AICRNHIMEPCIECQPK [HRT1] | 3.23 ± 0.13 | 2.26 ± 0.081 | 2.17 ± 0.094 | 2.67 ± 0.074
AIDHLKAELEKQKSWVP [YIL149C/MLP2] | 2.83 ± 0.073 | 3.05 ± 0.076 | 2.98 ± 0.11 | 2.91 ± 0.051
AIKKSSMKMELLKKELL [SMC2] | 2.19 ± 0.095 | 2.89 ± 0.17 | 2.78 ± 0.2 | 2.13 ± 0.081
AILLIINLTQTYGISVV [NUT1] | 1.34 ± 0.043 | 1.53 ± 0.049 | 1.7 ± 0.081 | 1.43 ± 0.04
AILRQQQQMANNNGNPG [GAL11] | 3.19 ± 0.13 | 2.77 ± 0.12 | 2.7 ± 0.12 | 3.17 ± 0.05
AIPNSIIKRSNGQSLSP [YMR153W/NUP53] | 2.68 ± 0.049 | 2.14 ± 0.12 | 2.71 ± 0.061 | 2.69 ± 0.037
AIQKKDNKDKEGNAGGD [YOR098C/NUP1] | 3.32 ± 0.18 | 3.44 ± 0.17 | 3.25 ± 0.1 | 3.44 ± 0.11
AIQMVDPASFYLFDEID [SMC3] | 2.32 ± 0.049 | 1.95 ± 0.042 | 2.66 ± 0.067 | 2.07 ± 0.045
AISKKNKSLKYVIHGIE [LIN1] | 1.84 ± 0.053 | 2.02 ± 0.058 | 2.11 ± 0.084 | 1.84 ± 0.04
AIVFEEIKNWISDIPYV [YMR129W/POM152] | 1.42 ± 0.045 | 1.36 ± 0.043 | 1.36 ± 0.075 | 1.72 ± 0.054
AKAPSGLDQSRIPFSER [FAS1] | 2.19 ± 0.061 | 2.19 ± 0.081 | 2.12 ± 0.25 | 2.56 ± 0.047
